Test results as given in KR20150078472A (dated 2015).

T1: AIMP1/p43 natively expressed in human cells (HeLa cell lysate) (human, UniProt Q12904 2-312, limits assumed)
T1 construct: Endogenous protein, denatured on a western blot; also called human 세포에서 원래 발현된 AIMP1/p43
T1 sequence (looked up): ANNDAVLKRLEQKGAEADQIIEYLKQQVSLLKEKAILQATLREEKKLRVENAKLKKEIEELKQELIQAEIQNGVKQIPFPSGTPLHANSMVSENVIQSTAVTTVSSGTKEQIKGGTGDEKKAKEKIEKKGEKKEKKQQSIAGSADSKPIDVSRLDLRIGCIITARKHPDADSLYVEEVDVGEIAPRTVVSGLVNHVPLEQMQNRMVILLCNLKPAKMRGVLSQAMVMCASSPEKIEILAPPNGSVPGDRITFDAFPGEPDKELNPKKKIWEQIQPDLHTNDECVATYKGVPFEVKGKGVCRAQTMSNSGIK

T2: Tyrosyl-tRNA synthetase (YRS) (UniProt P54577 1-528, limits assumed)
T2 construct: Recombinant antigen, purity above 90%, coupled to a Luminex bead; also called 타이로실-tRNA 합성효소
T2 sequence (looked up): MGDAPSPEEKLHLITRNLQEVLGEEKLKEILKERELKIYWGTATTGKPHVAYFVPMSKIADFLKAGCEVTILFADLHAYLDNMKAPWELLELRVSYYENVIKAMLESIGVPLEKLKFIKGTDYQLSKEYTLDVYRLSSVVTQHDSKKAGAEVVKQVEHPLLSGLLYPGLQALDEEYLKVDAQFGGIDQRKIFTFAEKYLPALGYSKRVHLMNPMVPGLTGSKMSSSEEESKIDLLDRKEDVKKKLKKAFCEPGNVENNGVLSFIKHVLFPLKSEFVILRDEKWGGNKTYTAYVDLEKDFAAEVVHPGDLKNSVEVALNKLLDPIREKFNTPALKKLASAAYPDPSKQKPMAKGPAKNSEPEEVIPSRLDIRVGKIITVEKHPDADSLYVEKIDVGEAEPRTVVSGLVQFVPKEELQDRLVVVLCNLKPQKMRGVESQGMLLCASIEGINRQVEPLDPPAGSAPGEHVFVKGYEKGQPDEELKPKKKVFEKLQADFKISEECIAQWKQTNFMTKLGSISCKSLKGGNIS

T3: Glycyl-tRNA synthetase (GRS) (UniProt P41250 55-739, limits assumed)
T3 construct: Recombinant antigen, purity above 90%, coupled to a Luminex bead; also called 글리실-tRNA 합성효소
T3 sequence (looked up): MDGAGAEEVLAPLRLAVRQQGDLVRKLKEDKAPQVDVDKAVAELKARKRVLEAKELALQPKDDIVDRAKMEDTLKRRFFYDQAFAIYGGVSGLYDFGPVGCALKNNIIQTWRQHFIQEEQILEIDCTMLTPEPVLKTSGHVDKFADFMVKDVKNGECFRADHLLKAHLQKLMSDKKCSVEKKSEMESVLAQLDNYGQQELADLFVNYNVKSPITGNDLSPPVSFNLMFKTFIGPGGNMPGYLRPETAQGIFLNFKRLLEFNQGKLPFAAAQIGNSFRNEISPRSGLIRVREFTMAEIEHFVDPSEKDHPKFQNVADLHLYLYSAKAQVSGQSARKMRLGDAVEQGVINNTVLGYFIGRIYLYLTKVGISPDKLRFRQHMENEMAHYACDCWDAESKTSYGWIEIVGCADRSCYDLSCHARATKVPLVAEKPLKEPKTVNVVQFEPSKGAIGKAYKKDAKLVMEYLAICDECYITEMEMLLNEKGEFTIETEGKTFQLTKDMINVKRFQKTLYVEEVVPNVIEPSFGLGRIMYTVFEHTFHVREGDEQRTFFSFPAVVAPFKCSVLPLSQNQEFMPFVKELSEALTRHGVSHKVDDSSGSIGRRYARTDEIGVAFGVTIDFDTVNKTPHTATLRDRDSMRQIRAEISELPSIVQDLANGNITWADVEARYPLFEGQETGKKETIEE

T4: Tryptophanyl-tRNA synthetase (WRS) (UniProt P23381 1-471, limits assumed)
T4 construct: Recombinant antigen, purity above 90%, coupled to a Luminex bead; also called 트립토파닐-tRNA 합성효소
T4 sequence (looked up): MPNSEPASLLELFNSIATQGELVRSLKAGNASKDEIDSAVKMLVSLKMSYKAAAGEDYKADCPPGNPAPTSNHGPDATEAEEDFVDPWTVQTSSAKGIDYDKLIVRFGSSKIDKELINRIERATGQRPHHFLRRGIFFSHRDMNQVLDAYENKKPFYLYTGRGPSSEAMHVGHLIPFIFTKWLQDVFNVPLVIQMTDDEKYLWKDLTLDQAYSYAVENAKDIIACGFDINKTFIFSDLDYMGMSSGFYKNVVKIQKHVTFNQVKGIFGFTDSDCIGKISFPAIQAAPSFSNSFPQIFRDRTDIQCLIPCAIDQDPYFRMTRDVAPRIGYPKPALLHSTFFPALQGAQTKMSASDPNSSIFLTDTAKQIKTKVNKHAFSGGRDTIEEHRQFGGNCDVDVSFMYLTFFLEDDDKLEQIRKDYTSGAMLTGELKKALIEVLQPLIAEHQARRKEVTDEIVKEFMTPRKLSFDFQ

T5: Histidyl-tRNA synthetase (HRS) (UniProt P12081 1-509, limits assumed)
T5 construct: Recombinant antigen, purity above 90%, coupled to a Luminex bead; also called 히스티딜-tRNA 합성효소
T5 sequence (looked up): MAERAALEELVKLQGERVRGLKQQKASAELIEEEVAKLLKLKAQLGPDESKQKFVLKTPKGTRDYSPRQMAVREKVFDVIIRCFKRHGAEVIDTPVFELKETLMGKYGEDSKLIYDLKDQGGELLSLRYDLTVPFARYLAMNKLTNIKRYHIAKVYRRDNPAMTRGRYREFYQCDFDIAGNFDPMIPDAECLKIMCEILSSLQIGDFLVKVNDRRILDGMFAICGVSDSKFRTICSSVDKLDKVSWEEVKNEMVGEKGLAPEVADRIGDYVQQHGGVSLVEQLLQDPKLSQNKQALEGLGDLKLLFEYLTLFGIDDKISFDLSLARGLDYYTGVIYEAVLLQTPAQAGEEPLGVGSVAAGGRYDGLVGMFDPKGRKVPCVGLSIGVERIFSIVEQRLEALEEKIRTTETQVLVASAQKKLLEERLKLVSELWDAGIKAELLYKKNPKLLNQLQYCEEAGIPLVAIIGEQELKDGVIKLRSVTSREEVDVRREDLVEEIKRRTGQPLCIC

T6: Asparaginyl-tRNA synthetase (NRS) (UniProt O43776 1-548, limits assumed)
T6 construct: Recombinant antigen, purity above 90%, coupled to a Luminex bead; also called 아스파라기닐딜-tRNA 합성효소
T6 sequence (looked up): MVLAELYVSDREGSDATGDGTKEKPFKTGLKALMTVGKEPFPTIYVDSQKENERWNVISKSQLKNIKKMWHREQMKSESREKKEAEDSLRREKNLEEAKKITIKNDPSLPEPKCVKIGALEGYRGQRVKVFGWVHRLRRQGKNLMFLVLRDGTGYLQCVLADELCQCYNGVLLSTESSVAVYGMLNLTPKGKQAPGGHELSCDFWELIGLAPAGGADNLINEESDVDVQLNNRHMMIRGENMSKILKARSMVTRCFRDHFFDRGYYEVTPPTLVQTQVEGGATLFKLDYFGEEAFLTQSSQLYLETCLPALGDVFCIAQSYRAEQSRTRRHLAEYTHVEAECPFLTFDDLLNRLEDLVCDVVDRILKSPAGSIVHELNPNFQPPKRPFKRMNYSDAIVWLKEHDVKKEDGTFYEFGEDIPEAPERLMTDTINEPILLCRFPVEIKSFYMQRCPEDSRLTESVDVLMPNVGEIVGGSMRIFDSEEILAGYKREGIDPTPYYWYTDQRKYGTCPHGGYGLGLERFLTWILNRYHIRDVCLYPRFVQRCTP

T7: recombinant AIMP1/p43 (ARS-interacting multifunctional protein 1) (human, UniProt Q12904 1-312, limits assumed)
T7 construct: Purified recombinant antigen used in SPR, on Luminex beads and as the ELISA standard; It calls the target human AIMP1/p43 in the summary and claims; also called AIMP1/p43 항원; 재조합 AIMP1/p43 표준물질
T7 sequence (looked up): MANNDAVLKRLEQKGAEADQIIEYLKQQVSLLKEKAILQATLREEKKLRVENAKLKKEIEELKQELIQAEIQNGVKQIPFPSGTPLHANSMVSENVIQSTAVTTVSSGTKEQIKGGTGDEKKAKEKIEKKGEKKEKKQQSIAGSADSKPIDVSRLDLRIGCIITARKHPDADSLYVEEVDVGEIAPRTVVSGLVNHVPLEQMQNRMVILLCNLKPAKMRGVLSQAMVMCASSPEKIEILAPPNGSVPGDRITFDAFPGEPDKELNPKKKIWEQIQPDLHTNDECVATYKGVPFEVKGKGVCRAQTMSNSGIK


Tests used:
[1] = target: T1, AIMP1/p43 natively expressed in human …; assay: western blot on HeLa cell lysate, periplasmic scFv, anti-HA-HRP detection
[2] = target: T2, Tyrosyl-tRNA synthetase (YRS); assay: Luminex multiplex bead assay, antigen-coupled beads, anti-HA-biotin and SA-PE detection
[3] = target: T3, Glycyl-tRNA synthetase (GRS); assay: as above
[4] = target: T4, Tryptophanyl-tRNA synthetase (WRS); assay: as above
[5] = target: T5, Histidyl-tRNA synthetase (HRS); assay: as above
[6] = target: T6, Asparaginyl-tRNA synthetase (NRS); assay: as above
[7] = target: T8, Lysyl-tRNA synthetase (KRS) (UniProt Q15046 1-597, limits assumed); assay: as above
T8 construct: Recombinant antigen, purity above 90%, coupled to a Luminex bead; also called 리실-tRNA 합성효소

[8] = target: T9, Seryl-tRNA synthetase (SRS) (UniProt P49591 1-514, limits assumed); assay: as above
T9 construct: Recombinant antigen, purity above 90%, coupled to a Luminex bead; also called 세릴-tRNA 합성효소

[9] = target: T7, recombinant AIMP1/p43 (ARS-interacting …); assay: SPR (ProteOn XPR36), AIMP1/p43 amine-coupled on GLC chip, scFv 200-25 nM as analyte, 25°C

T9 sequence (P49591 whole entry): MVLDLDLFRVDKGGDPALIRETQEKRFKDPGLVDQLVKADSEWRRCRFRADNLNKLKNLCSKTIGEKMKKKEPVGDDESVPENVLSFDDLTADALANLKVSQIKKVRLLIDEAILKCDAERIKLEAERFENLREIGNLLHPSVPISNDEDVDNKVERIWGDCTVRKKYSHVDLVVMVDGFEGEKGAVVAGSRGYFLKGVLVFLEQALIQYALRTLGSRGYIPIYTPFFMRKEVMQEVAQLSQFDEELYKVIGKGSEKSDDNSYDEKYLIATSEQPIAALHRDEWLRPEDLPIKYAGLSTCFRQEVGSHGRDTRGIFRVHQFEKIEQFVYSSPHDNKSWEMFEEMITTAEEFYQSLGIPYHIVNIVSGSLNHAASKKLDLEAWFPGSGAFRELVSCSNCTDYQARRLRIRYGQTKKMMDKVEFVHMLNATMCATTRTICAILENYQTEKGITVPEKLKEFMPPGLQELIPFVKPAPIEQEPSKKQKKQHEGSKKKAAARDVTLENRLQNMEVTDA
T8 sequence (Q15046 whole entry): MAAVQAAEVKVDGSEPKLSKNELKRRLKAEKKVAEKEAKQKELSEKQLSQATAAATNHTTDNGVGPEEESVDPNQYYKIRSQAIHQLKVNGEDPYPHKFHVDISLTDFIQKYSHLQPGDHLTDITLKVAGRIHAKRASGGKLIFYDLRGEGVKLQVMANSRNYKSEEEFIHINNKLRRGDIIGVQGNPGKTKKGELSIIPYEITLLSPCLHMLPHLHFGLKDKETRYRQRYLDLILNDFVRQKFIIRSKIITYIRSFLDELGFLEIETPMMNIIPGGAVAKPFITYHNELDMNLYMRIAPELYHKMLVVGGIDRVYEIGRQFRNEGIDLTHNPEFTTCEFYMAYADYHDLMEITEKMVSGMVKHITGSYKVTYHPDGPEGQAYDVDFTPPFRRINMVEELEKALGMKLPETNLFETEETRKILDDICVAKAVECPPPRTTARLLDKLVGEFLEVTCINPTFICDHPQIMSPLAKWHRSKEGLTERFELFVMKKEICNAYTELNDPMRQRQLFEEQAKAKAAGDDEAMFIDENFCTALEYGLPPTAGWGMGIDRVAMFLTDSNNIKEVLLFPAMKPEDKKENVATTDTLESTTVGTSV

binding result [1]	binding result [2]	binding result [3]	binding result [4]	binding result [5]	binding result [6]	binding result [7]	binding result [8]	binding result [9]	Binder
binds	no binding	no binding	no binding	no binding	no binding	no binding	no binding	binds	anti-AIMP1/p43 scFv Biocon-AM1-1 (scFv, Expressed from pComb3X in the E. coli periplasm; also called antibody i)) scFv: EVQLLEFLGEGLVQPGGSLRLSCAASGFTFSSYDMSWVRQAPGKGLEWVSVISSDGGSTYYADSVRGRFTISRDNSKNTLYLQMNSLRAEDTAVYYCAKDVMKTGTLVFDYWGQGTLVTVSSGGGGSGGGGSGGGGSQSVLTQPPSASGTPGQRVTISCSGSSSNIGSNDVSWYQQLPGTAPKLLIYADSKRPSGVPDRFSGSKSGTSASLAISGLRSEDEADYYCGSWDDSLSGYVFGGGTKLTVL
binds	no binding	no binding	no binding	no binding	no binding	no binding	no binding	binds	anti-AIMP1/p43 scFv Biocon-AM1-2 (scFv, Expressed from pComb3X in the E. coli periplasm; also called antibody ii)) scFv: EVQLLESGGGLVQPGGSLRLSCAASGFTFSNYDMSWVRQAPGKGLEWVSSIYPNGSSKYYADSVKGRFTISRDNSKNTLYLQMNSLRAEDTAVYYCARDVLLCISMRCYYADGMDVWGQGTLVTVSSGGGGSGGGGSGGGGSQSVLTQPPSASGTPGQRVTISCSGSSSNIGNNAVNWYQQLPGTAPKLLIYANSHRPSGVPDRFSGSQSGTSASLAISGLRSEDEADYYCGSWDSSLNGYVFGGGTKLTVL
